The text below walks through data of patent US20230227538A1 (University of California, published 2023).

Where a chain is given by its changes, count along the chain named. Values joined by “and” are separate entries in the source; they are usually repeats but may differ in a detail not shown here. Equal values may be shown once.

The target in assay [1] is T1, SARS-CoV-2 Spike ectodomain, stabilized prefusion trimer (spike ECD, Spike^S2P) (SARS-CoV-2).
T1 construct: also called SC2 Spike ECD; Spike trimer
The assay is described as follows: SPR, fast phase of a biphasic dissociation from Spike^S2P. (In general: Surface plasmon resonance follows binding to a sensor surface in real time, without labels.)

For assay [2], the target named is T1, SARS-CoV-2 Spike ectodomain, stabilized …. Description: SPR on captured Spike^S2P.
Assay [3] has the same target. The assay is described as follows: SPR, slow phase of a biphasic dissociation from Spike^S2P.
Assay [4] has the same target.
The target is the same in assay [5]. The assay is described as follows: SPR, Spike^S2P captured on a StreptactinXT chip.
Assay [6] has the same target. The source holds these as a separate data set.
The target in assay [7] is Spike protein of live SARS-CoV-2 (isolate France/IDF0372/2020) (SARS-CoV-2, UniProt P0DTC2 14-1273). The assay is described as follows: cell-based or functional assay.
Assay [8] addresses T1, SARS-CoV-2 Spike ectodomain, stabilized …. The assay is described as follows: SPR.
Assay [9] shares this target. Description: SPR, no measurable dissociation over ten minutes.

B1: Nb6-bi (bivalent Nb6 with a 15 amino acid linker) (VHH)
chain: QVQLVESGGGLVQAGGSLRLSCAASGIIFGRNAMGWYRQAPGKERELVAGITRRGSITYYADSVKGRFTISRDNAKNTVYLQMNSLKPEDTAVYYCAADPASPAPGDYWGQGTQVTVSSGGGGSGGGGSGGGGSQVQLVESGGGLVQAGGSLRLSCAASGIIFGRNAMGWYRQAPGKERELVAGITRRGSITYYADSVKGRFTISRDNAKNTVYLQMNSLKPEDTAVYYCAADPASPAPGDYWGQGTQVTVSS
For orientation: koff means the rate constant with which the complex falls apart. Read a high koff as a short-lived complex. In the case of B1, the koff in assay [1] worked out at 0.027 s⁻¹; in assay [3], 0.00031 s⁻¹. For the same molecule, the “fold gain in KD against Nb6” value in assay [2] was 750 fold.

B2: Nb6 (AeroNab6, NbCOV6, clone pNbCOV006A) (VHH)
VHH: QVQLVESGGGLVQAGGSLRLSCAASGIIFGRNAMGWYRQAPGKERELVAGITRRGSITYYADSVKGRFTISRDNAKNTVYLQMNSLKPEDTAVYYCAADPASPAPGDYWGQGTQVTVSS
notes: also called AeroNab6 MASC monomer; Parent clone (NbCOV6)
By EC50 is commonly meant the concentration giving half of the maximal effect. A higher EC50 goes with a need for much substance. By Kd is commonly meant a measure of binding affinity in units of concentration. Higher therefore signals weaker binding. The term IC50 denotes the concentration that inhibits the measured activity by half. As to B2, the koff in [2] is 0.056 s⁻¹. The molecule further had an EC50 in assay [4] of 359 nM. For the same molecule, in assay [5], binding was put at a Kd of 210 nM. In [6], this molecule registered an IC50 of 370 nM.

B3: mNb6 (matured Nb6, mNbCOV6, AeroNab6m) (VHH)
VHH: B2 VHH with I27Y, P105Y
B3: the EC50 in assay [4] was 0.056 nM.

B4: Nb6-tri (trivalent Nb6 with two 20 amino acid linkers) (VHH)
chain: QVQLVESGGGLVQAGGSLRLSCAASGIIFGRNAMGWYRQAPGKERELVAGITRRGSITYYADSVKGRFTISRDNAKNTVYLQMNSLKPEDTAVYYCAADPASPAPGDYWGQGTQVTVSSGGGGSGGGGSGGGGSGGGGSQVQLVESGGGLVQAGGSLRLSCAASGIIFGRNAMGWYRQAPGKERELVAGITRRGSITYYADSVKGRFTISRDNAKNTVYLQMNSLKPEDTAVYYCAADPASPAPGDYWGQGTQVTVSSGGGGSGGGGSGGGGSGGGGSQVQLVESGGGLVQAGGSLRLSCAASGIIFGRNAMGWYRQAPGKERELVAGITRRGSITYYADSVKGRFTISRDNAKNTVYLQMNSLKPEDTAVYYCAADPASPAPGDYWGQGTQVTVSS
For the molecule B4, the koff was 0.029 s⁻¹ in assay [1] and less than 1e-06 s⁻¹ in [3]. In addition, the “fold gain in KD against Nb6” value in assay [2] was more than 200000 fold. Besides, the “IC50, plaque assay with live SARS-CoV-2 on VeroE6 cells” value in [7] came to 0.16 nM.

B5: mNb6-tri (trivalent mNb6 with a 20 amino acid linker) (VHH)
chain: B4 chain with I27Y, P105Y, I166Y, P244Y, I305Y, P383Y
B5: in [8], the Kd was less than 0.001 nM and the “dissociation half-life t½” value is more than 192 h. Also, the “IC50, live SARS-CoV-2 infection assay” value in assay [7] was 54 pM and 2.3 ng/mL. In addition, the koff in [9] is less than 1e-06 s⁻¹.
